This data set is described as follows: yeast display, Sf9 membrane polyspecificity reagent, FACS + sequencing; frameworks hold sequencing errors. Summed up: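 Galactose induction of a Saccharomyces cerevisiae BJ5465 synthetic nanobody display library ran 36–48 hours. The cells were then stained for 1 hour at 4 °C with 10% biotinylated, detergent-solubilized Sf9 membrane reagent, pulled down on streptavidin microbeads and FACS-sorted into low and high (top ~1%) gates on expression and reagent-binding fluorescence. Labels for polyreactivity follow the gate of origin.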
With “QVQLVESGGGLVQAGGSLRLSCAASGSIFRGYAMGWYRQATGKERELVATIDSSAGSTYYADSVKGRFTISRDNAKNTVYLQMHSLKPEDTAVYYCATDPYGYYYSGFDYWGQGTQVTVSS”, the “polyreactivity (PSR sort gate)” value is “low polyreactivity”.
The entry for “QVQLVESGGGLVQAGGSLRLSCAASGRTFFRNAMGWYRQAPGKERELVAGMSSSGGRTYADSVKGRYTISRDNAKNTVYLQMNSLKPEDTAVYYCAVQSGWVSGLRYYYWGQGTQVTVSS” is “high polyreactivity”.
The entry for “QVQLVESGGGLVQAGGSLRLSCAASGIIFPGYAMGLYRQAPGKERELVAAISRSGASTYYADSVKGRFTISRDNAKNTVYLQMNSLKPEDTEVYYCAAEWYLGGEYRRYDYWGQGTQVTVSS” is “high polyreactivity”.
The result for “QVQLVESGGGLVQAGGSLRLSCAASGFTFYKYAMGWYRQAPGKERELVAAINWSGGSTYYADSVKGRFTISRDNAKNTVYLQMNSLKPEDTAVYYCAAERGTTYAYDYWGQGTQVTVSS” reads “high polyreactivity”; that for “QVQLVESGGGLVQAGGSLRISCAASGITFYGYAMGWYRQAPGKERELVATISKSGGITSYADSVKGRFSISRDNAKNTVYLQMNSLKPEETAVYYCNRGKSYGGYDYWGQGTQVTVSS”, “low polyreactivity”; that for “QVQLVESGGGLVQAGGSLRLSCAASGYTFDTNVMGWYRQEPGKERELVATITGSGGSTYYADSVKGRFTISRDNAKNTVYLEMNSLKPEDTAVYYCAAYCYRYSFHWLKRWPYDWGQGTQVTVSS”, “high polyreactivity”.
Regarding “QVQIVESGGGLVQAGGSLRLSCAASGGTFPAYAMGWYRHAPGKERELVAAISDDDSTYYADSVKGRFTISRDNAKNTVYLQKNSLKPEDTAVYYCNVEYWYYPSVEYSWTAYDYWGQGTQVTVSS”, the “polyreactivity (PSR sort gate)” value is “low polyreactivity”.
Take “QVQLVESGGGLVQAGGILRLSCAASGRTYGGYAMGWYRQAPGKERELVASITSTGGTHYSDSVKGRFTISRDNAKNTVYLQMNSLKPEDTAVYYFAAGYYYWKYDYWGQGTQVTVSS”: the “polyreactivity (PSR sort gate)” value is “high polyreactivity”.
As for “QVQRVESGGGLVQAGGSLRLSCAASRITFSVNALRWYRHAPGKDRELVASISSGGSTNYADSVQGGFTISRDNAKNTVDLQMNSLKQEDTAVYYCNADVGFGSMDYCGQGTQVTVSS”, the “polyreactivity (PSR sort gate)” value is “low polyreactivity”.
The entry for “QVQLVESGGGLVQAGGSLRLSCAASGIIFRSYAMGWYRQAPGKERELVAAITRSGGSTYADSVKGRFTISRDNAKNTVYLQMTSLKPEDTAVYYCAADRYSGWVYRRDYWGQGTQVTVSS” is “low polyreactivity”.
As for “QVQLVDTGGGLVQAGGSLRLSCAASGITFYFYVMGWYRQAPGKERELVADISTSDDSTYYADSVKGRFTISRDNAKNTVYLQMNSLKPEDTAVYYCATATRTYSAWYEYVYWGQGTQVTVSS”, the “polyreactivity (PSR sort gate)” value was “low polyreactivity”.
As to “QVQLVESGGGLVQAGGSLRLSCAASGGTFRSNAMGWYRQAPGKERELVAASTNYADSVKGRFTISRDNAKTTVYLQMNSLKPEDTAVYFCAARLASWPLTYDFQWYEYWGQGTQVTLSS”, the “polyreactivity (PSR sort gate)” value was “low polyreactivity”.
As for “QVQLIESGGGLVQAGGSLRLSCAASGIIFYDYAMGWYRPAPGKERELVATITSGGSTNYADSVKGRFTISRDNAKNTVYLQMNSLKPEDTAVYYCAAGRGLILGGVYGYDYWGQGTQVTVSS”, the “polyreactivity (PSR sort gate)” value was “low polyreactivity”.
In the case of “QVQLVESGGGLVQAGGSLLLSCAASGRTFILNAMGWYSQAPGKERELVAAISWSGGSTYYADSVKGRFTISRDNAKNTVYLQMNSLKPEDTAVYYCAAETYAYLFHTYDYWGQGTQVTVSS”, the “polyreactivity (PSR sort gate)” value is reported as “low polyreactivity”.
On to “QVQLVESGGGLVQAGGSLRLICAASGRNFSGNAMGWYTQAPRKERELVAAISTGGSTNYADSVKGRFTISRDNAKNTVYLHMNSLKQEDTAVYYCAADEWRFPSYAYYYWGQGTQVNVSS”, for which the “polyreactivity (PSR sort gate)” value was “low polyreactivity”.
Take “QVQLVESGGGLVQAGGSLRLSCAASGRTFQKNTMGWYRQAPGKERELVAAIDYSATTTYYADSVKGRFTISRDNAKNTVYLQMNSLKTEDTAVYYCAARWSYPRWEFDYWGQGTQVTVSS”: the “polyreactivity (PSR sort gate)” value is given as “high polyreactivity”.
As to “QVQLVESGGGLVQAGGTLRISCAASGSIFYLYAMGWYRQAPGKERELVAGIRYRGGSTYYADSVKGRFTISRDNAKNTVYLQMNSLKPEDTAVYYCAAEYGDGRYWSYDYWGQGTQVTVSS”, the “polyreactivity (PSR sort gate)” value is “high polyreactivity”.
The result for “QVQLVESGGGLVQAGGSLRLICAASGRILKYNAMGWYRQAPGKERELVAAISYRGGSTYYADSVKGRFTISRDTAKYTVYLLMNSLKPEDTAVYYCNAGGGILNGPLFDYWGQGTQVTVSS” reads “low polyreactivity”; that for “QVQLVESGRGLVQAGGRLRLSCAASGSTFDGYAMGLYRQAPGKERELVAAITVSVGSTYYADSVKGRFTISRDNAKNTVYLQMNSLKPEDTAVYYCAADYDYQYRYYYWGQGTKVTVSS”, “low polyreactivity”.
Turning to “QVQLQESGGGLVQAGGSLRLSCAASGNISPQLYMGWYRQAQGKEREFVAAIAEGSTTYYAESVKGRFTISRDDAKNTVYLQINSLKSEDTAVYYCAARYENAESFYYWGQGSQVTVSS”, the “polyreactivity (PSR sort gate)” value is recorded as “high polyreactivity”.
On to “QVQIVESGGGLVQAGGSIRLSCAASGSIFYDNDMGWYRQAPAKERELVAAISWSASDTYYADSVKGRFTISRDNAKNTVYLQMNSLKPEDTAVYYCNAEVYEWYVVYSALDYWGQGTQVTVSS”, for which the “polyreactivity (PSR sort gate)” value is on record as “low polyreactivity”.
The entry for “QVQLVESGGGLVQAGGSLRLSCAASGNIFKHYAMGWYRQAPGKERELVAAITWSGGSTHYADSVKGRFTISRDNAKNTVYFQMNSLKPEDTAVSYCAARGWWPGTKWTRYDYWGQGTQVTVSS” is “high polyreactivity”; for “QVQLVESGGGLVQAGGSLRLSCAASGFTFRYYAMGWYRQAPGKERELVAAISKSGGSTYYADSVKGRFTISRDNAKNTVYLQMNSLKPEDTAVYYCAARNWFSYYQIMDYWGQGTQVTVSS” it is “high polyreactivity”.
The result for “QVQLVESGGGLVQPGGSLLLSCAASRITFDHYAMAWYRRAPGKERELVAAITSGGNTNYADSVKGRFTISRDNAKNPVYLQMNSLKPEDTAVYYCNAGYDVCYYYWGKGTQVTVSS” reads “low polyreactivity”; that for “QVQLVESGGGLVQAGGSLRLSCAASGSTLYIYAKGWYRQAPGKETEFDADFSWSGGSTYYADSVKGRFTISRDYASNTVYLQMNSQKPEDTAVYNCNGDFTDSYLSRYDYWGQGTQVTVSS”, “low polyreactivity”; that for “QVQLVDSGGGLVQAGGSLRLSCAASGSTRRGYAMGWYRQAPGKERELVASISRRGGSTYYADSVKGRFTISRDNAKNTVYLQMKSLKTEVTAVYYCAATGRRGYGYGYWGQGTQVTVSS”, “high polyreactivity”.
With “QVQLVESGGGLVQAGGSLRLSCAASGITFNYYAMGWYRQAPGKERELVAVISSSGGRTYYADSVKGRFTISRDNAKNTVYLQMNSLKPEDTAVYYCAAGGSVAFYYWGQGTQVTVSS”, the “polyreactivity (PSR sort gate)” value is reported as “high polyreactivity”.
For “QVQLVESGGGLVQAGGSLRLSCAASGSTIGAYAMGWYRPAPGKERELVAAISRRGGSTYYADSVKGRFTISRDNAKNTVYLQMNSLKPEDSAVYYCNAVGTRVDGEHYYWGQGTQVTVSS”, the “polyreactivity (PSR sort gate)” value is recorded as “high polyreactivity”.
For the sequence “QVQLVESGGGLVQAGGSLRLSCAASGFILGYNAMGWYRQAPGKERELVADITFSGGGTNYADSVKGRFTISRDNAKNSVYLQMNSLKPEDTAVYYCNAAAFSQLRVRYDYWGQGTQVTVSS”, the “polyreactivity (PSR sort gate)” value is listed as “low polyreactivity”.
Turning to “QVHLVESGGWLVQAGGSLRLSCAASGLTFYNYAMGWYRPAPGKEREFVAAISRSGGTTYYADSVKGRFTISRDNAKYTVYLQMISLKPEDTAVYYCNAQWWRYWPSQVIFDYWGQGSQVTVSS”, the “polyreactivity (PSR sort gate)” value is “high polyreactivity”.
Regarding “QVQLVESGGGLVQAGGSLRLSCAASGSTFRYNAMGWYRQAPGTERELVAAINWSGSSTYYADSVKGRFTISRDNAKKTVYLQMNSLKPEDTAVYYCAAERPWYTKWGEYWGQGTQVTVSS”, the “polyreactivity (PSR sort gate)” value is recorded as “high polyreactivity”.
As to “QVQLVESGGGLVQAGGSLSLSCAASGRIFQPYAMGWYRQAPGKERELVARITSGGSTYADSVKGRFTISRDNAKNTVYLQMNSLKPEDTAVYYCAVRFPWYYRGYAYDYWGQGTQVTVSS”, the “polyreactivity (PSR sort gate)” value is listed as “high polyreactivity”.
The entry for “QVQLVESGGGLVQAGGSLRLSCAASGYTFNRNAMGWYIQAPGKERELVASITRRGGSTYYADSVKGRFTISRDNAKNTVYLQMNSLKPEDTAVYYCAVESIRTGDYWGQGTQVTVSS” is “high polyreactivity”.
As for “QLQLEESGGGLVQAGGSLRLSCAAYGNILGYNAMGWYRQAPGKERELVAAISDNADSTYYADSVKGRFTISRDNAKNTVYLQMNSLKPEDPAVYYCAADWVLRTWLFWYTKYDYWGQGTQVTVSS”, the “polyreactivity (PSR sort gate)” value is “low polyreactivity”.
The result for “QVHLVESGGGLVQAGGSLRLSCADCGFTLYGNAMGWYRQAPGKVRELVAAITKSGGRTYYADSVKGRFTISRDNAKNTVYLQMNSLKPEDTAVYYCAVRAKSRYDYWGQGTQVTVSS” reads “high polyreactivity”.
Take “QVQRVESGGGLVQAGGSLRLSCAASGRIFNWYVMGWKRQAPGKERELVAAINSGGITKYADSVKGRFTISRDNAKNTVYLQMNSLKPEDSAVYYCAAYYRRYDYDYWGQGTQVTVSS”: the “polyreactivity (PSR sort gate)” value is “high polyreactivity”.
On to “QVQLVESGGGLVQAGGSLRLSCAASGSTFKSYAKGWYRQAPGKEREFVAAIRGNGARTYYADSVKGRITISRDNAKNTVYFQMNSLKPEDTAVYYCNAVRYSFSDSSVDYWGQGTQVTVSS”, for which the “polyreactivity (PSR sort gate)” value is on record as “high polyreactivity”.
As to “QVQLVESGGGLDQAGGSLRLSCAASGIIFEQYAMGWYRQAPGKERELVAAISSGGTTYADSVKGRFTISRDNAKNTVYLQMNSLKPEYTAVYYCNDDLSWHGPDWSDYEYDYWGQGTQVTVSS”, the “polyreactivity (PSR sort gate)” value is on record as “low polyreactivity”.
Turning to “QVQLVESGGGLVQAGGSLRLSCAASGSTFSGNAMGWYRQAPGKERELVAAITRSGSRTYYADSVKGRFTISRDNAKNTVYLQMNSLKPEDTAVYYCAKVGRTGDDYYYWGQGTQVTVAS”, the “polyreactivity (PSR sort gate)” value is given as “high polyreactivity”.
Turning to “QVHLEESGGGLVQAGGSLRLRSAATGRIFKRYAMGWYIQAPGKERDLVAAINWSTGGTYYADSVKGRFTISRDNAKNSVYLHMNSLKPVDTAVYSCAADGDAWFEYLDVEYYYWGQGTQVTVSS”, the “polyreactivity (PSR sort gate)” value is reported as “low polyreactivity”.
As to “QVQLVESGGGLVQAGGSLRLSCAASGRTFYPNAMGWYRQAPGKERELVAAISWSGGSTYYADSVKGRFTISRDNAKNTVYLQMNSLKPEDTAVYYCNARYLYWALSYDYWGQGTQVTVSS”, the “polyreactivity (PSR sort gate)” value is given as “low polyreactivity”.

The record behind these values is the nanobody polyreactivity screen of Harvey et al. (2022).
